This is an account of results in patent US20170281764A1 (JN BIOSCIENCES, published 2017).

Test [1] addresses T1, extracellular region of human TIGIT fused to FLAG and GPI (hTIGIT-GPI), on the surface of NS0 cells (human).
T1 construct: The GPI signal is processed when the anchor is attached; also called NS0-hTIGIT cells
T1 chain: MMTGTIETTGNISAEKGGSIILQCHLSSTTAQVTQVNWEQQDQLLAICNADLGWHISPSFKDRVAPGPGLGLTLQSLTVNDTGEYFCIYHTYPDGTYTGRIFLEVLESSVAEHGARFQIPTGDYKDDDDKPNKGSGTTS
In words: flow cytometry, competition with hCD155-Fc-FITC (125 ng/ml) for NS0-hTIGIT cells. The procedure: The activity of HuTIG1-IgG1.AA to block the interaction between human TIGIT and human CD155 was analyzed by flow cytometry using NS0-hTIGIT cells. […] After washing with FACS Buffer, NS0-hTIGIT cells were subjected to flow cytometry using a FACScan flow cytometer (BD Biosciences, San Jose, Calif.). To examine the binding of hCD155-Fc-FITC on the cells, MCF was obtained at each antibody concentration. […] The half maximal inhibitory concentration (IC₅₀) of HuTIG1-IgG1.AA to block the TIGIT-CD155 interaction was 67 ng/ml.

Test [2] addresses T2, L44A.
T2 construct: also called HA-tagged human TIGIT with mutation L44A, on CHO-K1 cells
T2 single chain: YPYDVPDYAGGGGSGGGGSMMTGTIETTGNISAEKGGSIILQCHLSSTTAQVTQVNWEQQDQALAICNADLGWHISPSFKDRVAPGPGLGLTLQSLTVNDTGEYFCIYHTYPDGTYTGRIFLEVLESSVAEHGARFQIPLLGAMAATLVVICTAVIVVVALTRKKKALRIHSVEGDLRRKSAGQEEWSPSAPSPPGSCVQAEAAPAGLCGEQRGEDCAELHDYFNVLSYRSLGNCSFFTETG
The test can be described thus: flow cytometry titration on CHO-K1 cells transiently expressing the HA-tagged TIGIT mutant, Alexa488 anti-human IgG detection, four-parameter fit of percent of control, nM is from the concentration axis and paragraph 252. As for the experimental part: (§1) For flow cytometry analysis of the anti-hTIGIT antibody binding epitope, HA-tagged human TIGIT proteins with or without single amino acid mutation were transiently transfected into CHO-K1 cells. After 24 hr, transfected cells were suspended in HBSS buffer (Thermo Fisher Scientific, Cat#14175095), and incubated with HuTIG1-IgG1.AA antibody at varying concentrations in 50 μL volume. After 1 hr incubation at 4° C., cells were washed and a second incubation with 50 μL Alexa488 conjugated anti-human IgG(H+L) secondary antibody (Thermo Fisher Scientific, Cat#A-11013) was performed to detect cells bound by antibody. Cells were incubated with an anti-HA antibody (Sigma, Cat# H7411) as a positive control, and non-transfected CHO-K1 cells were used as a negative control. The cells were analyzed on an Attune NxT Cytometer (Thermo Fisher Scientific) and the data were processed using FlowJo software. For each mutant, the saturating antibody binding MFI (mean fluorescence intensity) were normalized to 100% POC (percent of control), and no primary antibody binding control MFI were normalized to 0% POC. Data were then fit to a four parameter non-linear sigmoidal curve using GraphPad Prism 7 curve fitting using following formula: Y=Bottom+(Top−Bottom)/(1+10^{((Log EC}^₅₀^{-X)*HillSlope)}).
(§2) All of these residues co-locate to one discrete region on the front ([…] structure of the TIGIT IgV extracellular domain (FIG. 28).
(Flow cytometry measures light scatter and fluorescence of single cells or particles in a stream.)

Test [3] addresses T3, F86A.
T3 construct: also called HA-tagged human TIGIT with mutation F86A, on CHO-K1 cells
T3 single chain: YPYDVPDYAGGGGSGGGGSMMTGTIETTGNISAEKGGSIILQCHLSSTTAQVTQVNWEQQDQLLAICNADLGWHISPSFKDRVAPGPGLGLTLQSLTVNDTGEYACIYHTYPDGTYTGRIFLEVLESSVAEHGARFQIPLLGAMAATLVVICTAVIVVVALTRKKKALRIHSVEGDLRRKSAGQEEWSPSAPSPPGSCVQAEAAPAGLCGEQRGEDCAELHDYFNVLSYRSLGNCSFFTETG
Described as above. As for the experimental part:
as §1, §2

The target of test [4] is T4, Y92A.
T4 construct: also called HA-tagged human TIGIT with mutation Y92A, on CHO-K1 cells
T4 single chain: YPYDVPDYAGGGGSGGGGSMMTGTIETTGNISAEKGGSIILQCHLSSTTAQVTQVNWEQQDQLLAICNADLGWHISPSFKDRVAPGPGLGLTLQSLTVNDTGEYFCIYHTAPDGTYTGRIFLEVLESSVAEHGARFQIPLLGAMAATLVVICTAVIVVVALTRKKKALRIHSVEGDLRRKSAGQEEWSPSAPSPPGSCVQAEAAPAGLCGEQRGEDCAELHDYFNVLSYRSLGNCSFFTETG
The test is described as above. The procedure: as §1, §2

In test [5] the target is T5, HA-tagged human TIGIT with mutation D51A, on CHO-K1 cells (human, UniProt Q495A1 22-244).
T5 construct: Built as for m17
T5 sequence: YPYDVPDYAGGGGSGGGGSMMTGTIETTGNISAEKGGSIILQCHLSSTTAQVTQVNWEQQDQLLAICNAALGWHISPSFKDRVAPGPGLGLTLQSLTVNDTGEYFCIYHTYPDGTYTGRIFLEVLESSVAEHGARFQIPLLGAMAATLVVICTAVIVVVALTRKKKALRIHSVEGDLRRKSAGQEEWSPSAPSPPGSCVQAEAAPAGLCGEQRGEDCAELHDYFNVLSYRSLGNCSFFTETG
In words: flow cytometry on CHO-K1 cells transiently expressing HA-tagged TIGIT mutant. The procedure: as §1, §2

In test [6] the target is T6, HA-tagged human TIGIT with mutation N49A, on CHO-K1 cells (human, UniProt Q495A1 22-244).
T6 sequence: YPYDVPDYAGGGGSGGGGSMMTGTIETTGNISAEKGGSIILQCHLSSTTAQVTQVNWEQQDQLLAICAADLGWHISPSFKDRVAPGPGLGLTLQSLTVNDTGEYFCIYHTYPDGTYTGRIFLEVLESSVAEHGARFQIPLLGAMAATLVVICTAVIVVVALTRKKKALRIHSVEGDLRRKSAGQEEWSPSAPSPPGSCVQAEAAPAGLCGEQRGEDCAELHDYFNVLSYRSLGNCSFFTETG
The description is as above. The procedure: as §1, §2

One may read the IC50 as the concentration needed to halve the response being measured. A higher IC50 goes with weaker potency in that assay. One may read the EC50 as the concentration at which the effect is half-maximal. Read a low EC50 as higher potency in that assay.

B1: HuTIG1-IgG1.AA (humanized IgG1/kappa form of TIG1, L234A/L235A) (antibody)
heavy: not shown
light: DIQMTQSPSSLSASVGDRVTITCRASKSISKYLAWYQQKPGKAPKLLIYSGSTLQSGVPSRFSGSGSGTDFTLTISSLQPEDFATYYCQQHNEYPWTFGGGTKVEIKRTVAAPSVFIFPPSDEQLKSGTASVVCLLNNFYPREAKVQWKVDNALQSGNSQESVTEQDSKDSTYSLSSTLTLSKADYEKHKVYACEVTHQGLSSPVTKSFNRGEC
notes: Mature full chains; also called humanized TIG1
Take B1: the 50% inhibitory concentration (IC50) in test [1] came to 0.067 µg/mL. In addition, the EC50 in test [2] is 1.23 nM; in test [3], 0.844 nM; in test [4] it was 2.12 nM. For the same molecule, the “fold decrease in binding affinity against wild type human TIGIT” value in test [5] and in test [6] was greater than 10 fold throughout.
